{
  "source": "patent US8603949B2",
  "about": "“Libraries of optimized cytochrome P450 enzymes and the optimized P450 enzymes” (California Institute of Technology, priority 2003, dated 2013)",
  "data": [
    {"assay": "Library plate screen on five test substrates (4-AAP, 12-pNCA)", "format": "biochemical", "settings": "seven-crossover library, cell lysate, 20 mM H2O2", "experimental": "These library plates were replicated and grown in 96 deep-well plates in 900 μL of LB media with 100 μg/ml ampicillin overnight at 30° C. and 250 rpm. 150 μL of this was then transferred to 850 μL of induction media (TB-media with final concentrations of 100 μg/ml ampicillin, 25 μg/ml thiamine, 0.5 mM δ-aminolevulinic acid and 0.6 mM IPTG). These were grown for 20-24 hours at 25° C. and 190 rpm, harvested by centrifugation at 5000×g for 8 minutes and frozen at -20° C. for at least 24 hours. Cells were resuspended using a pipetting robot (Multimek 96, Beckman) and lysed in 400 μL of Epps or Tris buffer (100 mM, pH 8.2) containing 0.8 mg/ml lysozyme and 2 units/mL DNaseI for 1 hour at 37° C. Plates were then spun for 8 minutes at 5000×g and 4° C. to pellet cell debris. 80 μL of lysate was transferred into 4 separate 96 well plates for each library plate. […] On one plate, high -throughput carbon monoxide spectroscopy was done in order to assess relative amounts of P450 (Otey, C. R. High-throughput carbon monoxide binding assay for cytochromes P450. In Directed Enzyme Evolution: Screening and Selection Methods, F. H. Arnold and […]. 137-139 (2003)) with 0.1 M sodium hydrosulfite being used in place of 0.4 M. The other three plates were used to assay activity on different substrates. Examples of assays that have been or could be used include the 4-AAP (Otey, C. R., and Joern, J. M. High-throughput screen for aromatic hydroxylation. In Directed Enzyme Evolution: Screening and Selection Methods, F. H. Arnold and […]. 141-148 (2003)), 12-pNCA (Schwaneberg et al., Anal. Biochem., 269:359-366 (1999), NBP assay ([…], et al., J Biomol Screen, 9:141-146 (2004)), 7-ethoxyresorufin (Sieber et al., Nat Biotechnol., 19:456-460 (2001)), vivid substrate assays (Marks et al., Assay Drug Dev Technol 1, 73-81 (2002); Marks et al., AAPS PharmSci 5, E18 (2003)), and purpald assays (Peters et al., J Am Chem Soc 125:13442-13450 (2003)). Since the heme domains were being used, the hydrogen peroxide was used to drive the reactions via the peroxide shunt (Cirino, P. C., and Arnold, F. H., Advanced Synthesis & Catalysis 344, 932-937 (2002)). The 4-AAP assay detects phenol-like compounds and consists of the addition of 40 μL of a 3.5× substrate solution (containing substrate concentrations dependent for each substrate) to 80 μL of lysate. […] Then a 7×(140 mM) H2O2 hydrogen peroxide solution was added resulting in a final concentration of 20 mM hydrogen peroxide. The reaction was mixed and left at room temperature without shaking for two hours and then quenched with 140 μL of 0.1 m NaOH and 4 M Urea. 38 μL of 0.6% 4-aminoantipyrine was added followed by blanking of the 96-well plate reader at 500 nm. 38 μL of 0.6% potassium persulfate was added and after 20 minutes the A500 was read. […]", "values": [
      {"molecule": "Chimera F3748: chimera of the CYP102A1/A2/A3 seven-crossover library (protein, Chimeric Cytochrome P450 heme group polypeptide sequence from CYP102A1 (Bacillus megaterium); CYP102A2 (Bacillus subtilis) and CYP102A3 (Bacillus subtilis), chimera of the CYP102A1/A2/A3 seven-crossover library) KQASAIPQPKTYGPLKNLPHLEKEQLSQSLWRIADELGPIFRFDFPGVSSVFVSGHNLVAEVCDEERFDKSIEGALEKVRAFSGDGLATSWTHEPNWRKAHNILMPTFSQRAMKDYHEKMVDIATQLIQKWSRLNPNEEIDVADDMTRLTLDTIGLCGFNYRFNSFYRDQPHPFITSMVRALDEAMNKLQRANPDDPAYDENKRQFQEDIKVMNDLVDRMIAERKANPDENIKDLLSLMLYAKDPVTGETLDDENIRYQIITFLIAGHETTSGLLSFATYFLLKHPDKLKKAYEEVDRVLTDAAPTYKQVLELTYIRMILNESLRLWPTAPAFSLYAKEDTVLGGEYPISKGQPVTVLIPKLHRDQNAWGPDAEDFRPERFEDPSSIPHHAYKPFGNGQRACIGMQFALQEATMVLGLVLKHFELINHTGYELKIKEALTIKPDDFKITVKPRKTAAINVQRKEQA", "activity on test substrates incl. novel substrates (diphenyl ether, allyloxy-benzene)": "activity that is novel"},
      {"molecule": "A3: third parent P450 of the seven-crossover library (protein, listed as Bacillus subtilis) KQASAIPQPKTYGPLKNLPHLEKEQLSQSLWRIADELGPIFRFDFPGVSSVFVSGHNLVAEVCDEKRFDKNLGKGLQKVREFGGDGLATSWTHEPNWQKAHRILLPSFSQKAMKGYHSMMLDIATQLIQKWSRLNPNEEIDVADDMTRLTLDTIGLCGFNYRFNSFYRDSQHPFITSMLRALKEAMNQSKRLGLQDKMMVKTKLQFQKDIEVMNSLVDRMIAERKANPDENIKDLLSLMLYAKDPVTGETLDDENIRYQIITFLIAGHETTSGLLSFAIYCLLTHPEKLKKAQEEADRVLTDDTPEYKQIQQLKYIRMVLNETLRLYPTAPAFSLYAKEDTVLGGEYPISKGQPVTVLIPKLHRDQNAWGPDAEDFRPERFEDPSSIPHHAYKPFGNGQRACIGMQFALQEATMVLGLVLKHFELINHTGYELKIKEALTIKPDDFKITVKPRKTAAINVQRKEQA", "activity on test substrates incl. novel substrates (diphenyl ether, allyloxy-benzene)": "no activity towards any of the substrates tested"},
      {"molecule": "Chimera F37233: chimera of the CYP102A1/A2/A3 seven-crossover library (protein, Chimeric Cytochrome P450 heme group polypeptide sequence from CYP102A1 (Bacillus megaterium); CYP102A2 (Bacillus subtilis) and CYP102A3 (Bacillus subtilis), chimera of the CYP102A1/A2/A3 seven-crossover library) KQASAIPQPKTYGPLKNLPHLEKEQLSQSLWRIADELGPIFRFDFPGVSSVFVSGHNLVAEVCDEKRFDKNLGKGLQKVREFGGDGLATSWTHEPNWQKAHRILLPSFSQKAMKGYHSMMLDIAVQLIQKWARLNPNEAVDVPGDMTRLTLDTIGLCGFNYRFNSYYRDQPHPFITSMVRALDEAMNKLQRANPDDPAYDENKRQFQEDIKVMNDLVDSIIAERRANGDQDEKDLLARMLNVEDPETGEKLDDENIRFQIITFLIAGHETTSGLLSFATYFLLKHPDKLKKAYEEVDRVLTDAAPTYKQVLELTYIRMILNESLRLWPTAPAFSLYAKEDTVLGGEYPLEKGDELMVLIPQLHRDKTIWGDDVEEFRPERFENPSAIPQHAFKPFGNGQRACIGQQFALQEATMVLGLVLKHFELINHTGYELKIKEALTIKPDDFKITVKPRKTAAINVQRKEQA", "activity on test substrates incl. novel substrates (diphenyl ether, allyloxy-benzene)": "activity that is novel"},
      {"molecule": "Chimera F37202: chimera of the CYP102A1/A2/A3 seven-crossover library (protein, Chimeric Cytochrome P450 heme group polypeptide sequence from CYP102A1 (Bacillus megaterium); CYP102A2 (Bacillus subtilis) and CYP102A3 (Bacillus subtilis), chimera of the CYP102A1/A2/A3 seven-crossover library) KQASAIPQPKTYGPLKNLPHLEKEQLSQSLWRIADELGPIFRFDFPGVSSVFVSGHNLVAEVCDEERFDKSIEGALEKVRAFSGDGLATSWTHEPNWRKAHNILMPTFSQRAMKDYHEKMVDIATQLIQKWSRLNPNEEIDVADDMTRLTLDTIGLCGFNYRFNSFYRDQPHPFITSMVRALDEAMNKLQRANPDDPAYDENKRQFQEDIKVMNDLVDRMIAERKANPDENIKDLLSLMLYAKDPVTGETLDDENIRYQIITFLIAGHETTSGLLSFAIYCLLTHPEKLKKAQEEADRVLTDDTPEYKQIQQLKYIRMVLNETLRLYPTAPAFSLYAKEDTVLGGEYPISKGQPVTVLIPKLHRDQNAWGPDAEDFRPERFEDPSSIPHHAYKPFGNGQRACIGMQFALQEATMVLGLVLKHFELINHTGYELKIKEALTIKPDDFKITVKPRKTAAINVQRKEQA", "activity on test substrates incl. novel substrates (diphenyl ether, allyloxy-benzene)": "activity that is novel"}
    ]}
  ]
}
